{"source": "patent US20230272028", "key": {"[1]": {"system": "CTSL1_2 8-mer FRET substrate Mca-ALFFSSPPK-Dnp"}, "[2]": {"system": "CTSL1_2 9-mer FRET substrate Mca-ALFFSSPPSK-Dnp"}, "[3]": {"system": "CTSL1_1 FRET substrate (ALFKSSFP)"}}, "data": [{"substance": "Cathepsin L (CTSL1), recombinant human", "values": [{"measurement": "30-mer peptide degradation by recombinant enzyme (MSP-MS)", "setting": "ALU30-5", "value": "The most efficiently cleaved peptides were those containing the FAPa_1, CTSL1_1 and ADAM17_2 motifs, in multiple orders"}, {"measurement": "30-mer peptide degradation by recombinant enzyme (MSP-MS)", "setting": "ALU30-8", "value": "The most efficiently cleaved peptides were those containing the FAPa_1, CTSL1_1 and ADAM17_2 motifs, in multiple orders"}, {"measurement": "FRET substrate cleavage by recombinant enzyme", "setting": "[1]", "value": "the new CTSL1_2 motif was not cleaved in the context of an 8-mer FRET peptide"}, {"measurement": "30-mer peptide cleavage (mass spectrometry)", "setting": "ALU30-18", "value": "Both peptides showed rapid disappearance of substrate (squares) and product formation from cleavage at the target scissile bond"}, {"measurement": "30-mer peptide degradation by recombinant enzyme (MSP-MS)", "setting": "ALU30-18", "value": "CTSL1 treatment of the 30-mer peptide library produced cleavages in all peptides bearing a CTSL1_1 or CTSL1_2 motif"}, {"measurement": "30-mer peptide degradation by recombinant enzyme (MSP-MS)", "setting": "ALU30-9", "value": "The most efficiently cleaved peptides were those containing the FAPa_1, CTSL1_1 and ADAM17_2 motifs, in multiple orders"}, {"measurement": "30-mer peptide degradation by recombinant enzyme (MSP-MS)", "setting": "ALU30-14", "value": "Peptides bearing the MMP14_1 motif with CTSL1_1 and ADAM17_2 were slightly lower efficiency"}, {"measurement": "FRET substrate cleavage by recombinant enzyme", "setting": "[2]", "value": "This 9-mer FRET substrate bearing the CTSL1_2 motif produced comparable catalytic efficiency to the CTSL1_1 motif"}, {"measurement": "30-mer peptide degradation by recombinant enzyme (MSP-MS)", "setting": "ALU30-11", "value": "Peptides bearing the MMP14_1 motif with CTSL1_1 and ADAM17_2 were slightly lower efficiency"}, {"measurement": "30-mer peptide degradation by recombinant enzyme (MSP-MS)", "setting": "ALU30-7", "value": "The most efficiently cleaved peptides were those containing the FAPa_1, CTSL1_1 and ADAM17_2 motifs, in multiple orders"}, {"measurement": "30-mer peptide degradation by recombinant enzyme (MSP-MS)", "setting": "ALU30-16", "value": "Peptides bearing the MMP14_1 motif with CTSL1_1 and ADAM17_2 were slightly lower efficiency"}, {"measurement": "30-mer peptide degradation by recombinant enzyme (MSP-MS)", "setting": "ALU30-17", "value": "CTSL1 treatment of the 30-mer peptide library produced cleavages in all peptides bearing a CTSL1_1 or CTSL1_2 motif"}, {"measurement": "FRET substrate cleavage by recombinant enzyme", "setting": "[3]", "value": "CTSL1 cleaves the FRET substrate bearing the CTSL1_1 motif highly efficiently"}, {"measurement": "30-mer peptide degradation by recombinant enzyme (MSP-MS)", "setting": "ALU30-1", "value": "CTSL1 treatment of the 30-mer peptide library produced cleavages in all peptides bearing a CTSL1_1 or CTSL1_2 motif"}, {"measurement": "30-mer peptide degradation by recombinant enzyme (MSP-MS)", "setting": "ALU30-15", "value": "Peptides bearing the MMP14_1 motif with CTSL1_1 and ADAM17_2 were slightly lower efficiency"}, {"measurement": "comparison of cleavage efficiencies across the 30-mer library", "setting": "ALU30-15", "value": "it had slightly higher hepsin susceptibility and lower CTSL1 activity"}, {"measurement": "30-mer peptide degradation by recombinant enzyme (MSP-MS)", "setting": "ALU30-12", "value": "Peptides bearing the MMP14_1 motif with CTSL1_1 and ADAM17_2 were slightly lower efficiency"}, {"measurement": "30-mer peptide degradation by recombinant enzyme (MSP-MS)", "setting": "ALU30-10", "value": "The most efficiently cleaved peptides were those containing the FAPa_1, CTSL1_1 and ADAM17_2 motifs, in multiple orders"}, {"measurement": "30-mer peptide degradation by recombinant enzyme (MSP-MS)", "setting": "ALU30-13", "value": "Peptides bearing the MMP14_1 motif with CTSL1_1 and ADAM17_2 were slightly lower efficiency"}, {"measurement": "30-mer peptide cleavage (mass spectrometry)", "setting": "ALU30-6", "value": "Both peptides showed rapid disappearance of substrate (squares) and product formation from cleavage at the target scissile bond"}, {"measurement": "30-mer peptide degradation by recombinant enzyme (MSP-MS)", "setting": "ALU30-6", "value": "The most efficiently cleaved peptides were those containing the FAPa_1, CTSL1_1 and ADAM17_2 motifs, in multiple orders"}]}]}
